Results on three molecules are retold here after US20250092133A1 (Amgen, published 2025).

Residue numbers refer to the chain shown, from its start.

The target of one assay is T1, murine CDH3 on cells (mouse, UniProt P10287 100-822).
T1 construct: negative control; also called mouse CDH3
T1 sequence: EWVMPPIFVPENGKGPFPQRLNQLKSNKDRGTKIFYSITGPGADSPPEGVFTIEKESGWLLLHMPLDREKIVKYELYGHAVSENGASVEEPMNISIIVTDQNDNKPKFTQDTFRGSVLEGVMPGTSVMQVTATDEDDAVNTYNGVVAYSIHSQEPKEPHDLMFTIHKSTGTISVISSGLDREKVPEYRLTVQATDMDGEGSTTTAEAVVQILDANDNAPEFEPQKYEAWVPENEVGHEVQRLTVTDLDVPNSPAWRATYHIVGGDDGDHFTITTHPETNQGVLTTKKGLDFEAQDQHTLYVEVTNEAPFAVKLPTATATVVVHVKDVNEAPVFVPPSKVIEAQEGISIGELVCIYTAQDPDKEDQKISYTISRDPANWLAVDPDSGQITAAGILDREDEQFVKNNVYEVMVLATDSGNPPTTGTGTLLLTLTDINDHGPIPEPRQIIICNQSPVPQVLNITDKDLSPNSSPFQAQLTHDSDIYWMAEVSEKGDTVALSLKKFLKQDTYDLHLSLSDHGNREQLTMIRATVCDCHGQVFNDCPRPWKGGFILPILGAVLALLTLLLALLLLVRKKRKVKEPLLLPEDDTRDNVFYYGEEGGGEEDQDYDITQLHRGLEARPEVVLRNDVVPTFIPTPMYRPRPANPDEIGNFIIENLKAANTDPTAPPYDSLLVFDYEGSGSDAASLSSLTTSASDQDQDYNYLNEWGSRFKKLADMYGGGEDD
The assay is described as follows: flow cytometry, transfected CHO cells; crude periplasmic scFv extract; anti-FLAG M2 + anti-mouse IgG Fcγ-PE. As for the experimental part:
(§1) Cells transfected with human or murine CDH3, or with the chimeric human/mouse CDH3 molecules (see Example 1) were stained with crude, undiluted periplasmic extract containing scFv binding to human/macaque CDH3. […] As negative control, cells were incubated with PBS/2% FCS instead of the periplasmic extract. The samples were measured by flow cytometry.

Assay [1] deals with T2, Hu CDH3 Dom1B mu (aa 144-179), human/mouse chimeric CDH3 on CHO cells (chimeric hu/mu, UniProt P22223 108-681 (human entry)).
T2 chain: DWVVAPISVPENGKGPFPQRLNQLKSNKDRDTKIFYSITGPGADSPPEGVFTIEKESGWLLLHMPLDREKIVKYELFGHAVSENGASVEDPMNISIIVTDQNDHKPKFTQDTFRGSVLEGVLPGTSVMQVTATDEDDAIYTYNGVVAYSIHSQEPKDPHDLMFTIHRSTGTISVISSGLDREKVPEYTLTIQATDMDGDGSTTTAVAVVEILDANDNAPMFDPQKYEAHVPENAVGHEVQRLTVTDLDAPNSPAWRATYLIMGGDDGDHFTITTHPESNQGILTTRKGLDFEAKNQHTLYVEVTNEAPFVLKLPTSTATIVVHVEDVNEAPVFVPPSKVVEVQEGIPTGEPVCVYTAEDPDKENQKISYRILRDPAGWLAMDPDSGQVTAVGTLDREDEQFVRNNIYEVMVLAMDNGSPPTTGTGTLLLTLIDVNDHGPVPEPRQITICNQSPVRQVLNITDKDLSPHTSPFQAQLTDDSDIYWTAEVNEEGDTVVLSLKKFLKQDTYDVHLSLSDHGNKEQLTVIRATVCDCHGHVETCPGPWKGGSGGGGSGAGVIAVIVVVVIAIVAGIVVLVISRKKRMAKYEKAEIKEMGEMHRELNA
Described as above. As for the experimental part:
as §1

Assay [2] deals with T3, Hu CDH3 Dom1 mu (aa 108-215), human/mouse chimeric CDH3 on CHO cells (chimeric hu/mu).
T3 chain: T2 chain with D1E, V4M, A5P, S8F, D31G, F77Y, D90E, H104N
The description is as above. As for the experimental part:
as §1

For assay [3], the target named is T4, human CDH3 (P-cadherin) on cells (human, UniProt P22223 108-829).
T4 construct: The entry includes signal peptide and pro-peptide; extracellular domain D1 starts at aa 108; also called hu CDH3; hu CDH-3
The assay is described as follows: flow cytometry, transfected CHO cells; crude undiluted periplasmic scFv extract; anti-FLAG M2 + anti-mouse IgG Fcγ-PE; control PBS/2% FCS. As for the experimental part: as §1

B1: CDH3-8 (scFv)
scFv: EVQLVEQSGAEVVKPGASVKITCKASGYAFSSYWMNWVRQRPGKGLEWIGHIYPGDGDTNYNGKFKGKVTLTADKSSNTAYMQLSDLTPEDSAVYFCARDRGSFGAWFAYWGQGTTVTVSSGGGGSGGGGSGGGGSELVMTQTPSSLSASLGDRVTISCRASQDISNYLNWYQQKPDGTVKLLIYYTSRLHSGVPSRFSGSGSGTDYSLTISNLEQEDIATYFCQQGNRNPPTFGGGTKLEIK
notes: Used as crude periplasmic extract and detected through a FLAG tag; also called CDH3-8 scFv
B1: the binding result in the assay with murine CDH3 on cells was “no binding”; in assay [1] it was “no binding”; in assay [2] it was “no binding”; in assay [3], “binds”.

B2: CDH3-9 (scFv)
scFv: EVQLVEESGGDLVKPGGSLKLSCAASGFTFSTYGMSWVRQTPDKRLEWVATISSGGHYSYYPDSVKGRFTISRDNAKNTLYLQMSSLKSEDTAMYYCASYYYGSPFAYWGQGTTVTVSSGGGGSGGGGSGGGGSELQMTQSPSSLSASLGERVSLTCRASQDIGSSLNWLQQKPDGTIKRLIYDTSSLDSGVPKRFSGSRSGSDYSLTISSLESEDFGDYYCVQYGSSPLTFGAGTKLEIK
notes: Used as crude periplasmic extract and detected through a FLAG tag; also called CDH3-9 scFv
On to B2, for which the binding result with murine CDH3 on cells is reported as “no binding”; in assay [1] it was “no binding”; in assay [2] it was “no binding”; in assay [3], “binds”.

B3: CDH3-10 scFv (scFv)
scFv: EVQLVEESGGGLVKPGGSLKLSCAASGFTFSSYAMSWVRQTPDKRLEWVATISSGGHYTYYPDSVKGRFTISRDNAKNTLYLQMSSLKSEDTAMYYCASYYYGIPFGYWGQGTTVTVSSGGGGSGGGGSGGGGSELVMTQSPSSLSASLGEGVSLTCRASQDIGINLIWLRQEPDGTIKRLIYDTSSLDSGVPKRFSGSRSGSDYSLTISSLESEDFVHYYCLQYGSSPLTFGAGTKLEIK
For the molecule B3, the binding result with murine CDH3 on cells is recorded as “no binding”; in assay [1], “no binding”; in assay [2], “no binding”; in assay [3] it was “binds”.
